The record followed here is the DeepSol protein solubility set.

A short description of this series: soluble on expression in E. coli; label from the status in PepcDB or PDB records.
As to “MGSDKIHHHHHHMLLIDKLSNHENFTNTEQRIADYILKNITDIPPMNIDKLSKVTYTSHSAVVRLTKKLGFEGFKDFKVAISEAVYSQTTNMNSVDANFPFDSNDSVSTISKKVAELSVESIQRTFAQLDERLIEEAANTIAKSERIFLFAQGDSQIRARSFQNKLVKLNRFAILGEEYSDEDWTAANLTKKDCAIFISYGGRISQYERMLTHFSENKIPSVVLTGNQKSPLIRLAQTAIVTTQNEYDFLKISTFSSQITFEYLLDTIFSVIYAKEYQQNIINLKNKFNLIQRGTLSEGLAKEHDSK”, the “soluble on expression in E. coli” value is given as “not soluble”.

With “SLRIREIEPIVLTSKEKGSATWASIMIVTRVITENGEVGYGEAVPTLRVISVYNAIKQVSKAYIGKEVEEVEKNYHEWYKQDFYLARSFESATAVSAIDIASWDIIGKELGAPIHKLLGGKTRDRVPVYANGWYQDCVTPEEFAEKAKDVVKMGYKALKFDPFGPYYDWIDERGLREAEERVKAVREAVGDNVDILIEHHGRFNANSAIMIAKRLEKYNPGFMEEPVHHEDVIGLRKYKASTHLRVALGERLISEKETAFYVEEGLVNILQPDLTNIGGVTVGRSVIKIAEANDVEVAFHNAFGSIQNAVEIQLSAVTQNLYLLENFYDWFPQWKRDLVYNETPVEGGHVKVPYKPGLGVSINEKIIEQLRAEPIPLDVIEEPVWVVKGTWKNYGV”, the “soluble on expression in E. coli” value is listed as “not soluble”.

Take “AHHHHHHGSVKFCPKCGSIMIPDRRRGVFVCRKCGYEEPINPEDTKAYRRTEEVKHRPDEGVVVIEQEVSTLPTAKVTCPKCGHNEAWWWELQTRAGDEPSTIFYKCKKCGYVWRSYE”: the “soluble on expression in E. coli” value is “soluble”.

Turning to “MSLAATIREVAALAGVAPGTVSNVLTGKKLVAEPLRKAVLDAIAQLDYRPNHLASSLRFGRTKSIGIVVPDMTNPFFSGLVRELELKAAKSGFQILLMSSYEEAAEERERIRALVSRQVDGLIISPSRDSIETSPHSAISGIPTVLVDRAFAVEGFDTVSADNEQATLMGARHLIELGHKRITFLATAPGLANMEERVSGYRKAMQDAGVSDANVVYGGLSIESCRSAIEQELRRAGRPTAVFASAYVATLGAAKAIRALDLAFPQDVSLLGFDDSDWMTVLRPYVSTIEQPLDELGHACWELLQRRMKKMDVPPVHRRIACTLRARESTREGHHHHHH”, the “soluble on expression in E. coli” value was “soluble”.

For the sequence “MSMPATSTKTTKLATSLIDEYALLGWRAMLTEVNLSPKPGLVDRINCGAHKDMALEDFHRSALAIQGWLPRFIEFGACSAEMAPEAVLHGLRPIGMACEGDMFRATAGVNTHKGSIFSLGLLCAAIGRLLQLNQPVTPTTVCSTAASFCRGLTDRELRTNNSQLTAGQRLYQQLGLTGARGEAEAGYPLVINHALPHYLTLLDQGLDPELALLDTLLLLMAINGDTNVASRGGEGGLRWLQREAQTLLQKGGIRTPADLDYLRQFDRECIERNLSPGGSADLLILTWFLAQI”, the “soluble on expression in E. coli” value is “not soluble”.

As for “MAVRIVTDSSSGLPAEIAEELGITVVDLHLVASENQVSTAGLSALELTAAYARQLERGGDAGVVALHLSKELSSTWSAAHTAAAVFDGTVDVVDTQSVGMCVGAAAMAAARLAQGGASLRECADMARDTLRRSETWLYLHRMEEMRRSGRITTATAVVSAALATKPIMQLRGGHVELAVKTRTQSKAFARLVAVISDRCAGEPAFVAIQHHQALEAAHSLQSQLTAALPKGSSFMIMDMDQALSVHCGVGALGISVVFSSYSDTAPIDLSTTS”, the “soluble on expression in E. coli” value is listed as “not soluble”.

Turning to “STQFINKLYASYLREKAYLTAQKHWEKDEIDEQSYQIIQRKYDELLPEAHEILLNMDSLSEVRDTLNKYLTQHQQALLIAGEDSVPFSFKYKDQLGAALYYPDNEGNFIVLVMSRNVYGAEIKE”, the “soluble on expression in E. coli” value is recorded as “not soluble”.

For the sequence “MGHHHHHHSHQETQLSSKVVQKLVLPFGRLNYLPLEQQFMPCLERILAREAGVAPLATVNILMSLCQLRCLPFRALHFVFSPGFINYISGTPHALIVRRYLSLLDTAVELELPGYRGPRLPRRQQVPIFPQPLITDRARCKYSHKDIVAEGLRQLLGEEKYRQDLTVPPGYCTDFLLCASSSGAVLPVRTQDPFLP”, the “soluble on expression in E. coli” value is reported as “not soluble”.

Turning to “MSEHVFETEQVYPALGKVEIAPEVIEVIAGIAASEVDGIAQMRGNFAAGVAERFGKKHHGKGVKVDLRDDGVVIDLYCLVQFGASIPNVAKKVQENVRQALWNMTGLEASEVNVHIVGIQFEGGKQEQGVVEQ”, the “soluble on expression in E. coli” value was “not soluble”.

With “MAQPPDGRLTYMTQHQRVMEWLNSIDRPNGIHFLDMDAKSLLVLMNTLDRKTRSNLEKSCKILLSISRSDKPHLQQLCLHFTTTWNHDQFAEITAQFSPEHSFHSIFMSKKKSPNWITGGWSIDRQKNITSGIFQPEKLRLSATFVERTSRYIEYWLRNFQIDTLRIKVENLIPGKENSIQQSNYTGEIPPLKLKKLIIHGANNIRFINNWLDNLVPNAIDPLDDKKKIIDVEFLDVGKLDQIFHHSLMTTGKVNLTFNRVSTHFTRKTLNFVNSPMINIVARQVPSEAVNSFLKRWCRGEIIEDFQYLHLMETTQWPSQQMHMMDALSGLRYQIVDLKTDVKLRILEKQKEFPKPAQIFQITGPRPGFCAHFGNQFIFEIPKTEDIQHILVNPPISQNTFDEYERQKNRIYMELFRKRLIRLFN”, the “soluble on expression in E. coli” value is “not soluble”.

Take “MAHHHHHHMSDAPHRQSSTPASSFLPPEPLCVADILSELLPFLLAAPQPRDGCPPSSSAQEPAESPVLLIPPTVASEHRVQVSIRGRRYETALEVALTYSLFFFVFFHWPFSEEDESSDAAGCASDVAHVKRAPRSVGDAVMAAASARDLPKEAHLLRHYTRVVEPVLRVFLDHWAAPLDAAAAAQGEGESAARAETAEAGDAARLPLLPPLPHPVRIAYDASTRVWKFEFAARLTAGAAAEARSGRQCDDSSAAVSLAAADGCAAVATDKLNNSPFLLLQSEYMGLLLVFLRRCAKVRAERRAAGEGAAACALAPYPSLPIRWEEMNYDEQLSVVQLIRRFGVVSLARTYTRPTAPETTSLYIGEEAAAATARVKVEGDACSLRARASESMGKQQQKIQQAASVAVDTAEVVKKERCINEDDFDGLVLSAKGCARCGMAEHSTEECHF”: the “soluble on expression in E. coli” value was “soluble”.

Take “MKVAGTSAPPETAPAASRPGLRELKKQRTRDLLLRSALELFTERGYEETTVDDIAEAADVSQRTFFRYFASKEDAAFFVARLAESHFVRAVLARPPEEAPLDALRRALAESWSTIGEAVEQLVPLELHMRFYRVIESTPALLAAHLRRATELEEEIARVVAVREGLDVDTDPRPRVIVAVFGAVMRVTERIWSARDDASLAALRDLTADYLDQVAPALTGNWRRAET”: the “soluble on expression in E. coli” value is listed as “soluble”.

Turning to “MADNKITFFGKCDGISVEQLIRYSRFNMNVKHFHNQYEIFYIIEGERQFFFDNKSYNAYAGDIAILDTNLVHTTCSISDEDKGYNRVILYIDYEKMCDFDKKYPGLNLVNYFHNNYGIYHLNEDQRIAFLNLYRDLRHELTKKNSGYQSRVEIATIYWLYKLLSLKHDSTQIHAVINSPKE”, the “soluble on expression in E. coli” value is listed as “not soluble”.

Consider “MGSDKIHHHHHHMNLKTTLGLLAGRSSHFVLSRLGRGSTLPGKVALQFDKDILQNLAKNYEIVVVTGTNGKTLTTALTVGILKEVYGQVLTNPSGANMITGIATTFLTAKSSKTGKNIAVLEIDEASLSRICDYIQPSLFVITNIFRDQMDRFGEIYTTYNMILDAIRKVPTATVLLNGDSPLFYKPTIPNPIEYFGFDLEKGPAQLAHYNTEGILCPDCQGILKYEHNTYANLGAYICEGCGCKRPDLDYRLTKLVELTNNRSRFVIDGQEYGIQIGGLYNIYNALAAVAIARFLGADSQLIKQGFDKSRAVFGRQETFHIGDKECTLVLIKNPVGATQAIEMIKLAPYPFSLSVLLNANYADGIDTSWIWDADFEQITDMDIPEINAGGVRHSEIARRLRVTGYPAEKITETSNLEQVLKTIENQDCKHAYILATYTAMLEFRELLASRQIVRKEMN”, for which the “soluble on expression in E. coli” value was “not soluble”.

Take “MQKSVLITGCSSGIGLDSALELKRQGFQILAGCRKPDDVARMNSMGFTGVLIDLDSPESVDRAADEVIALTDNRLYGIFNNAGYGVYGPLSTISREQMEQQFSSNFFGAHQLTMRLLPAMLPHGEGRIVMTSSVMGLISTPGRGAYAASKYALEAWSDALRMELRHTGIKVSLIEPGPIRTRFTDNVNQTQRDKPVENPGIAARFTRDPDAVVAKVRHAFASDKPRLRYPVTLVTWAVMALKRILPGRMLDKILQS”: the “soluble on expression in E. coli” value is “not soluble”.

Take “DVQLVESGGGSVQAGGSLRLSCAASGSTDSIEYMTWFRQAPGKAREGVAALYTHTGNTYYTDSVKGRFTISQDKAKNMAYLRMDSVKSEDTAIYTCGATRKYVPVRFALDQSSYDYWGQGTQVTVSSRGRHHHHHH”: the “soluble on expression in E. coli” value was “soluble”.

On to “MVRHRLPSSTYYTPAGEPEWSREMFGEQSIAVLSGAYRNPIEMARHVAARCGSYQPFFVMDVAAIERRLEALRVMLPRVRPNYAVACNADPVLARVLSNNIDVNFEVSNTAELELVSMNVEPSRAVFCSQLMTRKAIKNAVLAGCSTFVVESEKQVTDVMNASPEAEIILAVCLPYSTGEVPFGCSVDEIEEILDMAHLLGANVTGIYLELGLRATLEDYITSVHDARSIFETADQKFLTLRRVCFGNLSVPTGADGAVNNEFMSFCNSLNNVIDDLFESNIDFSASIGRFLVTNAFTLCTNVIGKRAMDAKFITNDDFDDGVGFVYQTNDGVYGSFGCKQMDIKPLCKPLDVENDSEEQLHFGTILGPTLDGTDVAQRLMKSRQLRVGEWLVWEQMGAFTIPVDSEHSVPPVYYYSGKECWQKLIHKDEQRRSPSPSVSDNEDIGSDGEGGYASSCEDSEAEMALEPLIEDLNEFF”, for which the “soluble on expression in E. coli” value is listed as “not soluble”.

In the case of “MGSDKIHHHHHHMQWRRVLRFVNMEVVYVLGVKGGIGKTTFSLYFANQLSLTGKKVLYIDHDYFSFGSLILGHNDLGLLEEIENNLPIFSRSLKNINNLYILKLFSNPLDANKDYSLLSNSIPQVVNSIAKMGLDYVILDSSVGILPDNDIVIGLLEELDVEKKGVFLSDMLSVNSTIKYAKLWENAIKYKILVINMVPPIPEDLSEAMKIANKVYDDNNSKLFNTVVVVPFDEKMYNYKPLGNEYENERLNTILSCIVNRCNTLIIN”, the “soluble on expression in E. coli” value was “not soluble”.

As for “MHPRSKLSQAQRELAVDLFEEGYGSRAVANRLGVRREQVRHLEDRFRLHGRLCLVSKRTKRQYSFDTKMEILRRHKAGELKSDLAKEYGLSSPALINHWVWQVNKGGPDALRPKPKGRPKSSARPAPVTEEDKLRRENELLKAEVAYLKKLRDLRDQRRGLEHHHHHH”, the “soluble on expression in E. coli” value was “not soluble”.

Regarding “MSLGNDRWRAEFPLERIGTYEFRVEAWRDVFATLHADLEKKRAANTVLPVDVQEAVAAVQAAQARSDGALAERLQTVLTRIGAQSEPLQQLAIVLEPDTAQAMALADDKPFRSEYPVTFRVESERRAAHFSSWYELFPRSQSGDASRHGTFDDVIKRLPHIRAMNFDVLYMPPIHPIGLNNRKGRNNSVTAVEGEPGSPYAIGATDGGHTEVHAELGGLEGFRRLIEAARAQGLEVALDFAIQCAPDHPWLKEHKDWFTWRADGSIPYAENPPKKYQDIVNVDFYASGAVPDLWNTLRDAVLFWVNEGVTLFRVDNPHTKPFPFWEWLIADVRGRRPDVVFLSEAFTRPKMMYRLAKCGFSQSYTYFTWRNHKHELQAYVEELNDGVPRECFRPHFFVNTPDINPLFLQTSGRNGHLIRAALATTLSGLWGMYQGFELCEATPLAPGKEEYLDSEKFQLRAWPERVPGDIVEEITRFNQLRRMHPELQSHLGTRFYQAHNDQVLYYGKFLDAGYLSRSRSMVLVAINLDPHAGQDADIEIPLWELGLPDHASVAVEDLWDGHRFAWHGKYQHIRLEATRPFALWRIRAGEGHHHHHH”, the “soluble on expression in E. coli” value was “not soluble”.
